This note sets out measurements from article PMC5575937.

Numbering of substitutions follows the chain as printed.

One data set concerns the target T1, ETV6H432R (Mus musculus (murine), UniProt P97360 329-446, C334S;H432R).
T1 sequence: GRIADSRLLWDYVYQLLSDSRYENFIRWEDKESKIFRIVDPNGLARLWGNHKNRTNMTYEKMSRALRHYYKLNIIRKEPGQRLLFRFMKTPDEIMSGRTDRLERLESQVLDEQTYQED
Put plainly: EMSA. A general note: In EMSA bound probe runs differently from free probe, usually more slowly.

In the next data set the target is T2, ETV6RAE (Mus musculus (murine), UniProt P97360 329-446, C334S;H432R;S435A;Q436E).
T2 sequence: T1 sequence with S107A, Q108E
In words: EMSA.

Another data set concerns the target T3, ETV62C-red (Mus musculus (murine), UniProt P97360 329-446, C334S;A393C;V437C).
T3 sequence: T1 sequence with A65C, R104H, V109C
Put plainly: NMR.

The term Kd denotes a measure of binding affinity in units of concentration. Read a high Kd as lower affinity.

B1: 23-bp ETS consensus duplex (dsDNA)
DNA 1: CGGCCAAGCCGGAAGTGAGTGCC
DNA 2: GGCACTCACTTCCGGCTTGGCCG
In the case of B1, the results for the Kd in the data set with ETV6H432R and with ETV6RAE were 30 ± 10 nM and 90 ± 10 nM, respectively.

B2: 15-bp ETS consensus duplex (dsDNA)
DNA 1: CAAGCCGGAAGTGAG
DNA 2: CTCACTTCCGGCTTG
Regarding B2, the binding result with ETV62C-red is on record as “binds”.
